Laboratory results from PMC3479092, “Tsetse Salivary Gland Proteins 1 and 2 Are High Affinity Nucleic Acid Binding Proteins with Residual Nuclease Activity”.

Experiments:
[1] = target: T1, Tsal1 (Glossina morsitans morsitans, UniProt D3TS87 23-399); assay: SPR; conditions: SPR (BIAcore), 50 mM sodium acetate pH 4.0, 150 mM NaCl, 3.5 mM EDTA, 0.005% Tween-20, 30 ul/min, Langmuir 1:1 fit; temperature not stated
T1 sequence: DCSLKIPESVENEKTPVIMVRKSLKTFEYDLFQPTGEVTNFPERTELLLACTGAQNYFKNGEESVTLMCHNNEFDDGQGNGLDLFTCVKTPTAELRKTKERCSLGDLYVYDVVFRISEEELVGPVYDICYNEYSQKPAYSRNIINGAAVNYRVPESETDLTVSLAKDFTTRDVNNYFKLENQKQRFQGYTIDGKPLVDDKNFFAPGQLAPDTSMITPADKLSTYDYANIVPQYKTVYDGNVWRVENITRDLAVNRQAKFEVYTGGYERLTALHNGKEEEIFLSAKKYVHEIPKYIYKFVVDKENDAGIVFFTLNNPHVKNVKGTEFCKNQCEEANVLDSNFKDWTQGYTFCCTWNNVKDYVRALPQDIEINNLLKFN

[2] = target: T1, Tsal1; assay: SPR; text: 1.03 nM; ka 1.0E+06, kd 1.0E-03; SPR (BIAcore), 50 mM sodium acetate pH 4.0, 150 mM NaCl, 3.5 mM EDTA, 0.005% Tween-20, 30 ul/min, Langmuir 1:1 fit; temperature not stated; conditions: protein: recombinant; tags: pelB leader (pET22b), His tag implied by Ni-NTA; blunt

dsDNA 161 bp gave a Kd [1] of 0.45 nM.

dsRNA 121 bp gave a Kd [1] of 2.8 nM.

B1: dsDNA 25bp polyA/T (dsDNA)
DNA 1: AAAAAAAAAAAAAAAAAAAAAAAAA
DNA 2: TTTTTTTTTTTTTTTTTTTTTTTTT
B1 gave a Kd [2] of 1 nM.
